T1: human LAP-TGFβ3 overexpressed on HT1080 cells (human, UniProt P10600 24-412)
T1 construct: also called HT1080-huB3
T1 sequence: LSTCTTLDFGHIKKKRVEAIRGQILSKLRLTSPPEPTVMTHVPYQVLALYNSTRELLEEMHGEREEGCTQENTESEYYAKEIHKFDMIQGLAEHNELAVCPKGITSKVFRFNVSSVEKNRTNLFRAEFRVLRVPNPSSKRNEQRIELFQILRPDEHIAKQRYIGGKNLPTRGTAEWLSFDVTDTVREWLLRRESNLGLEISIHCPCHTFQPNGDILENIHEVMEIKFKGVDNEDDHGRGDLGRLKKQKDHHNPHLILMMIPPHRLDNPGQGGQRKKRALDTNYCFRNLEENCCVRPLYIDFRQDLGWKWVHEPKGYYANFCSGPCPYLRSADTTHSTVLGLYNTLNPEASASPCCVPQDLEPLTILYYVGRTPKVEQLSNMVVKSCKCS

T2: fusion protein of a human IgG1 Fc domain and human LAP-TGFβ2 (human, UniProt P61812 21-414)
T2 construct: also called Fc-huB2; human LAP-TGFβ2-Fc
T2 sequence: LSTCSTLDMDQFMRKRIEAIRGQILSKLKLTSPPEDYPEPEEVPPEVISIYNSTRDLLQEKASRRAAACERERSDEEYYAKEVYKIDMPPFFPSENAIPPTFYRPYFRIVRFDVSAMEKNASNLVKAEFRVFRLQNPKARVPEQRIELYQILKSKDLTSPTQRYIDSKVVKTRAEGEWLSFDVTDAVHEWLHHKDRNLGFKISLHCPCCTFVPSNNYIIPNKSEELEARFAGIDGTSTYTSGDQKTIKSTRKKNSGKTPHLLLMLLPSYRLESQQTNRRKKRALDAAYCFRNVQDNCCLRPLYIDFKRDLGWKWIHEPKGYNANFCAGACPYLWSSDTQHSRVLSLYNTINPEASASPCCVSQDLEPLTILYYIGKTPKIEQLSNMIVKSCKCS

B1: 22F9_hIgG1 (antibody, V domains shown)
VH: QVQLQQPGAELVKPGASVKLSCKASGYTFTSYWMHWVKQRPGQGLEWIGMIHPNSGSTNYNEKFKSKATLTVDKSSSTAYMQLSSLTSEDSAVYYCAYYDYDGFFDVWGTGTTVTVSS
VL: DIVLTQSPASLDVSLGQRATISCRASKSVSTSGYSYMHWYQQKSGQPPKLLIYLASNLESGVPARFSGSGSGTHFTLNIHPVEEEDAATYYCQHSRELPYTFGGGTKLEIK
B2: 20E6_H0.2aL1_hIgG1 (antibody)
heavy: not shown
light: DIQMTQSPSSLSASVGDRVTITCRASQDITNYLNWYQQKPGKAVKLLIYYTSRLHSGVPSRFSGSGSGTDYTLTISSLQPEDFATYFCQQGDTLPWTFGQGTKLEIKRTVAAPSVFIFPPSDEQLKSGTASVVCLLNNFYPREAKVQWKVDNALQSGNSQESVTEQDSKDSTYSLSSTLTLSKADYEKHKVYACEVTHQGLSSPVTKSFNRGEC
notes: also called 20E6_H0.2aL1_IgG1; humanized 20E6

Legend:
[1] = target: human LAP-TGFβ1 overexpressed on cells (human, UniProt P01137 30-390); assay: cell-based or functional assay
Chain of human LAP-TGFβ1 overexpressed on cells (P01137 30-390): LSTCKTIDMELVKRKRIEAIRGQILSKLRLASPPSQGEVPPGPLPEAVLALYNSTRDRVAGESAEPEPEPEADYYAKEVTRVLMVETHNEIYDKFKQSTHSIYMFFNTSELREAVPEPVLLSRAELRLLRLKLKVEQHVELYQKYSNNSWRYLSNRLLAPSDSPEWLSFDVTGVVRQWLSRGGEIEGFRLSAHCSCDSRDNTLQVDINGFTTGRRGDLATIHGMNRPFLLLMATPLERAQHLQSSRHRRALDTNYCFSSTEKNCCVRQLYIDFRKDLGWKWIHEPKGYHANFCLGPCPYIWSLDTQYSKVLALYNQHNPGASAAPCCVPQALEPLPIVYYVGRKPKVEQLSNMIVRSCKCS

[2] = target: T1, human LAP-TGFβ3 overexpressed on HT1080 …; assay: flow cytometry titration, HT1080-huB3 cells
Description: This Example describes the binding of anti-LAP antibodies to LAP-TGFβ isoforms and LAP-TGFβ variants. In addition to antibodies 28G11_hIgG1, 22F9_hIgG1, and 20E6_hIgG1, anti-LAP antibodies 17G8_hIgG1, 24E3_hIgG1, and 2C9_(hyb) were also tested in this experiment. Briefly, 4×10⁵ each of (a) HT1080 cells, (b) HT1080 cells overexpressing human LAP-TGFβ1, (c) HT1080 cells overexpressing human LAP-TGFβ2, (d) HT1080 cells overexpressing human LAP-TGFβ3, (e) HT1080 cells overexpressing murine LAP-TGFβ1, (f) P3U1 cells, (g) P3U1 cells overexpressing LAP-TGFβ1 and GARP, and (h) P3U1 cells overexpressing LAP-TGFβ1 and LRRC33 were cultured in 96-well plates. The plates were centrifuged for 5 min at 1,500 rpm, liquid was removed, and cells were resuspended with 200 μL FACS buffer. The plates were centrifuged again, diluted primary antibody was added to each well, and the plates were incubated on ice for 20 minutes, followed by centrifugation. The cells were resuspended in 200 μL FACS buffer, centrifuged again, and resuspended in 50 μL diluted secondary antibody (Alexa647-anti-Human IgG or APC-anti-Mouse IgG). The plates were incubated on ice for 20 minutes in the dark, washed twice with 200 μL FACS buffer, and cells from each well (in 200 μL FACS buffer) were read on the Attune NXT instrument.

[3] = target: murine LAP-TGFβ1 overexpressed on cells (mouse, UniProt P04202 30-390); assay: cell-based or functional assay
Chain of murine LAP-TGFβ1 overexpressed on cells (P04202 30-390): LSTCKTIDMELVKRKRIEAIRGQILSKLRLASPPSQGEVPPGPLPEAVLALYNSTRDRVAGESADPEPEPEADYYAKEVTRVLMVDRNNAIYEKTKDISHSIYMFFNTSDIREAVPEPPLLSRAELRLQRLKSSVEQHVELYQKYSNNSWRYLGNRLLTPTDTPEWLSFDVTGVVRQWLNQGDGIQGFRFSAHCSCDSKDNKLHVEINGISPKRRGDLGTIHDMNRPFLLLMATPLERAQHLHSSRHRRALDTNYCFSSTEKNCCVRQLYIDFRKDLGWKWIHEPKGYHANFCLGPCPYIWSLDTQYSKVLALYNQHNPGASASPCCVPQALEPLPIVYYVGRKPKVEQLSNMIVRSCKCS

[4] = target: T3, fusion protein of a human IgG1 Fc domain and human LAP-TGFβ1 (human, UniProt P01137 30-390); assay: BLI, 2:1 model, component 1
T3 construct: printed both as Fc-huB1 and LAP-TGFβ-Fc; also called Fc-huB1; Fc-human LAP
T3 sequence (P01137 30-390 limits assumed): as the sequence (P01137 30-390) above
Description: (§1) The 20E6_H0.2aL1_IgG1 antibody was biotinylated using EZ-Link SulfoNHS-LC-Biotin (ThermoFisher). A streptavidin-functionalized tip was equilibrated in binding buffer (10 mM sodium phosphate, 150 mM sodium chloride, 1% (w/v) bovine serum albumin, 0.05% (w/v) sodium azide, pH 7.4) and dipped in a 10 μg/mL solution of biotinylated anti-LAP in binding buffer for 30 seconds to load the tip with antibody. The antibody-loaded tip was then washed in binding buffer and placed in a solution containing 0-24 nM of a fusion protein having a human IgG1 Fc domain fused to either human LAP-TGFβ1, human LAP-TGFβ2 or human LAP-TGFβ3. The antigen was allowed to bind to antibody for 5 minutes (association phase), and then the tip was moved to binding buffer (dissociation phase). The association and dissociation phases were fit to a 2:1 heterogenous ligand binding model to determine the binding rate constants. As shown in FIG. 21A and Table 17, 20E6_H0.2aL1_IgG1 bound with sub-nanomolar affinity to human LAP-TGFβ1, but not to human LAP-TGFβ2 (FIG. 21B) or LAP-TGFβ3 (FIG. 21C).
(§2) The binding of 20E6_H0.2aL1_IgG1 antibody and 20E6_H0.2aL1_hIgG4mut antibody to LAP-TGFβ1 of various species was examined by bio-layer interferometry using the method described in Example 12, except that the antibody-loaded tip was placed in a solution containing 0-24 nM of a fusion protein having a human IgG1 Fc domain fused to either mouse, rat, cynomolgus monkey, or human LAP-TGFβ1.

[5] = target: T4, fusion protein of a human IgG1 Fc domain and cynomolgus monkey LAP-TGFβ1 (human; cynomolgus monkey); assay: BLI, 2:1 model, component 1
T4 construct: also called cynomolgus monkey LAP-TGFβ-Fc
Description: as §1, §2

[6] = target: T5, fusion protein of a human IgG1 Fc domain and rat LAP-TGFβ1 (human; rat, UniProt P17246 30-390, limits assumed); assay: BLI, 2:1 model, component 1
T5 construct: also called rat LAP-TGFβ-Fc
T5 sequence (P17246 30-390 limits assumed): as the sequence (P04202 30-390) above, with E93D, S99T, L131F, S134T, K202V counted along it
Description: as §1, §2

[7] = target: T6, fusion protein of a human IgG1 Fc domain and mouse LAP-TGFβ1 (human; mouse, UniProt P04202 30-390); assay: BLI, 2:1 model, component 1
T6 construct: also called mouse LAP-TGFβ-Fc
T6 sequence (P04202 30-390 limits assumed): as the sequence (P04202 30-390) above
Description: as §1, §2

[8] = target: T2, fusion protein of a human IgG1 Fc …; assay: bio-layer interferometry, biotinylated antibody on streptavidin tip, Fc-huB2 in solution
Description: as §1

Row | Binder | IC50 of inhibition of TGFβ1 activation [1] [µg/mL] | binding result [2] | IC50 of inhibition of TGFβ1 activation [3] [µg/mL] | Kd [4] [nM] | koff [4] [s⁻¹] | kon [4] [M⁻¹ s⁻¹] | Kd [5] [nM] | koff [5] [s⁻¹] | kon [5] [M⁻¹ s⁻¹] | Kd [6] [nM] | koff [6] [s⁻¹] | kon [6] [M⁻¹ s⁻¹] | Kd [7] [nM] | koff [7] [s⁻¹] | kon [7] [M⁻¹ s⁻¹] | binding result [8]
1 | B1 | 1.8 | no binding (tested: about 800 ng/well) |  |  |  |  |  |  |  |  |  |  |  |  |  | 
2 | B2 | 1.3 |  | 1.7 | 16.5 | 0.0355 | 2.15e+06 | 15.8 | 0.0394 | 2.49e+06 | 13.4 | 0.0441 | 3.3e+06 | 14.2 | 0.0343 | 2.42e+06 | no binding (tested: 24 nM)
